Patent US9115359B2, “Methods for producing secondary metabolites” (NewSouth Innovations Pty Limited, priority 2007, dated 2015)

Key:
E. coli AcpS = details: reported (21,40); with respect to CoA; cited from earlier work
[1] = tested on: Synechocystis sp. PCC6803; test: Complementation of Sppt gene disruption with NsPPT; assay type: cell-based; details: PCR screening of segregation
Source text: A 2.5 kb fragment including Sppt (slr0495, Swissprot accession number Q55185) was amplified with the primers sirup (5′-[…]-3′) (SEQ ID NO: 7) and slrdn (5′-[…]-3′) (SEQ ID NO: 8). This fragment was cloned into pGEM-T-Easy (Promega) and digested with the restriction enzyme AvaI. A chloramphenicol (Chl^R) resistance cassette was ligated into this site and the resulting plasmid, pGCSlr, was naturally transformed into Synechocystis sp. PCC6803 to insertionally inactivate Sppt using methods described in Eaton-Rye, J., 2004 The construction of gene knockouts in the cyanobacterium Synechocystis sp. PCC 6803, Methods Mol. Biol.; 274:309-24. The Synechocystis sp. PCC6803 wildtype (WT) was also transformed with a chloramphenicol resistance knockout plasmid as a positive control for strain viability. Briefly, approximately 2 ml Synechocystis sp. PCC6803 cells were centrifuged and washed in BG-11 media. After resuspension in […] BG-11, 3 μg ml^−1 plasmid was added and the cells were incubated at 25° C. in 30 μmol m^−2 sec^−1 constant light for 6 hours. The cells were spread onto sterile nitrocellulose filters (0.45 μm, Millipore, Billerica Mass.) on non-selective BGTS plates (BG-11, 10 mM TES, 0.3% sodium thiosulfate, 1% agar). After 36 hours, the filters were transferred to selective BGTS plates with 10 μg ml^−1 chloramphenicol. […]

Nppcp = test: NhcS PPT assay, ESI-MS; assay type: biochemical, Nostoc punctiforme; details: 30 minutes, 37° C.
Description: (§1) PPT assays were carried out as previously described in Finking, R., et al., (2002) Characterization of a new type of phosphopantetheinyl transferase for fatty acid and siderophore synthesis in Pseudomonas aeruginosa. J Biol Chem 277:50293-302). In brief, a 100-400 μL reaction comprising of 50 mM Tris-HCl pH 7.4, 12.5 mM MgCl, 0.5 mM CoA, 2 μM DTT, 30 μg of the respective carrier proteins (CPs) and 300 nM of PPT was incubated at 37° C. for 30 minutes. Reactions were terminated by the addition of 1 ml of 10% TCA. Assays were precipitated overnight at −20° C. before at centrifugation 4° C., for 15 mins at 16,000 g. Protein pellets were analysed by electrospray ionisation mass spectrometry (ESI-MS). Spectra were acquired using an API QStar Pulsar i hybrid tandem mass spectrometer (Applied Biosystems, Foster City Calif.). Samples (˜200-400 fmol) were dissolved in water:acetonitrile:formic acid (50:49:1), loaded (1 μl) into nanospray needles (Proxeon, Denmark) and the tip positioned ˜10 mm from the orifice. Nitrogen was used as curtain gas and a potential of 900 V applied to the needle. A T of MS scan was acquired (m/z 550-2000, 1 second) and accumulated for ˜1 minute into a single file. […]
(§2) Activity was detected by ionisation mass spectrometry through the mass addition of […], relating to the incorporation of the pantetheinyl arm of CoA transferred by the PPT to the CP (FIG. 17).

HetM ArCP = test: NhcS PPT assay, ESI-MS; assay type: biochemical, N. punctiforme ATCC29133; details: 30 minutes, 37° C.
Description: as §1, §2

Mpcp = test: NhcS PPT assay, ESI-MS; assay type: biochemical, Microcystis aeruginosa; details: 30 min assay
Description: as §1, §2

Molecule: CC(C)(COP(=O)(O)OP(=O)(O)OC[C@H]1O[C@@H](n2cnc3c(N)ncnc32)[C@H](O)[C@@H]1OP(=O)(O)O)[C@@H](O)C(=O)NCCC(=O)NCCS [CoA, co-enzyme A]
- kcat value (E. coli AcpS): approximately 10 min^d

B1: NhcS: phosphopantetheinyl transferase (heterocyst carrier protein synthase) from Nodularia spumigena NSOR10 (protein)
chain: MTALNHLWLPVPTNLTLLPNDVHIWRIHLDVPEAQQQNLLATLSGDELTRANRFHFQEHRQRFIAGRGILRSILGSYLGIEPQRVLFDYQERGKPILADSLAKSGLWFNLSHSQGLALCAVNYHNRIGIDLEYIRRMSDVEALAKRFFLPREYDVVRSLSDHQQQEIFFRYWTCKEAYLKATGEGLAQLEQVEVLLNPTEPAQLQTSESWSLFELRAAEDYFAAVVVEGSGCNLQCWQY
- Sppt gene disruption in NsPPT-complemented strain [1]: Sppt was effectively disrupted in the NsPPT-complemented strain
- pantetheinylation of Nppcp (Nppcp): Nppcp was pantetheinylated
- conversion of apo-ArCP to holo-ArCP (HetM ArCP): conversion of the apo-ArCP (15.75 kDa) to the holo-ArCP (16.05 kDa) is seen
- pantetheinylation of Mpcp (Mpcp): Complete pantetheinylation
